These are literature values, as cited in article PMC5481609.

A word on the Kd: it is the free concentration of one partner at which half of the binding sites on the other are occupied at equilibrium, for simple one-to-one binding.

This series concerns the target IL-23 p19 (Homo sapiens) (UniProt Q9NPF7).

Chain of IL-23 p19 (Homo sapiens) (Q9NPF7 20-189, chain 1 of 2): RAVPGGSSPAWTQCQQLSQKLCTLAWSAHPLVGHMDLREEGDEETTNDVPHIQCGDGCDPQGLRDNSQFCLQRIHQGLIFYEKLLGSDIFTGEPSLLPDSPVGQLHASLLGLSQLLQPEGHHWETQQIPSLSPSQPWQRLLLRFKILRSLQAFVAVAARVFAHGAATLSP
Chain of IL-23 p19 (Homo sapiens) (P29460 23-328, chain 2 of 2, further chain): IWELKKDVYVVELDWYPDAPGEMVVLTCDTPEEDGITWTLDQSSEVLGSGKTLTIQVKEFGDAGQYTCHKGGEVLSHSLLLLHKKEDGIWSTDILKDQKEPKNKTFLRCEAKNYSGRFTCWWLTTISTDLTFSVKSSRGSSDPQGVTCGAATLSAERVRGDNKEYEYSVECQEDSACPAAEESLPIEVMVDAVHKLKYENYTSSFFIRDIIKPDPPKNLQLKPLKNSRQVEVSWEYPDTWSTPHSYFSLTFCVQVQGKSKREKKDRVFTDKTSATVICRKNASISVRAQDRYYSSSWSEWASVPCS

In the case of brazikumab, the Kd is 138 pM.
